Test [1] deals with ApHt_20, IsCT-like antimicrobial venom peptide from Mesobuthus martensii Karsch (Mesobuthus martensii Karsch).
The target is the same in test [2]. The source holds these as a separate data set.

In turn, “HAP-1, short-chain highly acidic peptide from Mesobuthus martensii Karsch” showed an agar diffusion assay against Staphylococcus aureus AB94004: minimum concentration of HAP-1 required to completely inhibit the inhibition zone made by 40 nM ApHt 20 in test [1] of 140 nM. The MIC of ApHt 20 against Staphylococcus aureus AB94004 in the presence of 32 μM HAP-1 (8 μM without HAP-1) in test [2] came to 16 µM.
